Values quoted from earlier work as cited in publication PMC12153800.

Target: FZD10 (Homo sapiens) (UniProt Q9ULW2)
Assay: NanoBiT/BRET

FZD10 (Homo sapiens), sequence (Q9ULW2 21-581): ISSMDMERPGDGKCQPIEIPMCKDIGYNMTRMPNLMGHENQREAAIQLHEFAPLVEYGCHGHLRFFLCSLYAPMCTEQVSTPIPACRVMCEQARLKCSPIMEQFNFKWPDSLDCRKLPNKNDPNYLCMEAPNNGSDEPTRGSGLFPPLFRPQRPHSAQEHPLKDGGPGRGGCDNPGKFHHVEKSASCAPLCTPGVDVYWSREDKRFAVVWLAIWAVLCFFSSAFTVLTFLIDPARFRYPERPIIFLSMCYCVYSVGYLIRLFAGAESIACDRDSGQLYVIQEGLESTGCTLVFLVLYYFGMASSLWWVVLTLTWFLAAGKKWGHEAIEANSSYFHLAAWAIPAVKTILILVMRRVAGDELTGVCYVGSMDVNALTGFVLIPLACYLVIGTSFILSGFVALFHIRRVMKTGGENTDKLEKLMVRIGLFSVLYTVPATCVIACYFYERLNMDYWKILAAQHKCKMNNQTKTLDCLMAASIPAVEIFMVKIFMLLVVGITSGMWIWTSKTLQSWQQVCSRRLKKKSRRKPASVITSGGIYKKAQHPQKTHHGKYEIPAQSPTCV
Wnt3a, sequence (P56704 19-352): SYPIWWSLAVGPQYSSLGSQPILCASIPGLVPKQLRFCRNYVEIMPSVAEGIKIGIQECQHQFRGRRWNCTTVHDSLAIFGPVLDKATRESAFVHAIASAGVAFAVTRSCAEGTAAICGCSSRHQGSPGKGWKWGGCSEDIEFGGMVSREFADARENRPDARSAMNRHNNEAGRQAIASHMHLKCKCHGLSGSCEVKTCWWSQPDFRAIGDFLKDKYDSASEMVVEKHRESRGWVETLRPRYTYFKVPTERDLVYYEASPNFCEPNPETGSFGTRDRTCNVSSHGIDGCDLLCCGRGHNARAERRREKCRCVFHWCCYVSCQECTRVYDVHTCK

Wnt3a (from UniProt P56704)
Kd: 4.3 nM
